Numbering of substitutions follows the chain as printed. Names may count otherwise.

T1: Ep-CAM (UniProt P16422 24-265, limits assumed)
T1 sequence (looked up): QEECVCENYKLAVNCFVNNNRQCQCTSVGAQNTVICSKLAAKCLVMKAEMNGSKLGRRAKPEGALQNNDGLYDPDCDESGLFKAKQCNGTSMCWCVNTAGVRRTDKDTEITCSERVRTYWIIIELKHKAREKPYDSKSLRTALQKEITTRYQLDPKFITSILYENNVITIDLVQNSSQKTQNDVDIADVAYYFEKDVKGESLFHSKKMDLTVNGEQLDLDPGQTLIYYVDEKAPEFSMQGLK

B1: XPA23 light chain S93A (Fab, V domains shown)
VH: EVQLLESGGGLVQPGGSLRLSCAASGFTFSKYFMFWVRQAPGKGLEWVSVISPSGGMTRYADSVKGRFTISRDNSKNTLYLQMNSLRAEDTAVYYCARVGYGGNSDYWGQGTLVTVSS
VL: DIQMTQSPSSVSASVGDRLTIICRASQDINRWLAWYQQTPGNAPKLLIHSATSLQSGVPSRFSGSGSGTDFTLTINSLQPEDFATYYCQQADAFPLTFGGGTKVEIK
notes: Single light chain substitution; Fab in periplasmic extract; also called C5A (XPA23) S93A
B2: XPA23 light chain S93I (Fab, V domains shown)
VH: B1 VH
VL: B1 VL with A93I
notes: Single light chain substitution; Fab in periplasmic extract; also called C5A (XPA23) S93I
B3: XPA23 light chain S93G (Fab, V domains shown)
VH: B1 VH
VL: B1 VL with A93G
notes: Single light chain substitution; Fab in periplasmic extract; also called C5A (XPA23) S93G
B4: XPA23 light chain S93L (Fab, V domains shown)
VH: B1 VH
VL: B1 VL with A93L
notes: Single light chain substitution; Fab in periplasmic extract; also called C5A (XPA23) S93L
B5: XPA23 light chain S93V (Fab, V domains shown)
VH: B1 VH
VL: B1 VL with A93V
notes: Single light chain substitution; Fab in periplasmic extract; also called C5A (XPA23) S93V
B6: XPA23 light chain S93T (Fab, V domains shown)
VH: B1 VH
VL: B1 VL with A93T
notes: Single light chain substitution; Fab in periplasmic extract; also called C5A (XPA23) S93T
B7: XPA23 light chain S93P (Fab, V domains shown)
VH: B1 VH
VL: B1 VL with A93P
notes: Single light chain substitution; Fab in periplasmic extract; also called C5A (XPA23) S93P
B8: ING-1 Fab, heavy chain A102L (Fab, V domains shown)
VH: QIQLVQSGPELKKPGETVKISCKASGYTFTKYGMNWVKQAPGKGLKWMGWINTYTEEPTYGDDFKGRFAFSLETSASTANLQINNLKSEDTATYFCARFGSLVDYWGQGTSVTVSS
VL: DIVMTQAAFSNPVTLGTSGSISCRSSKSLLHSNGITYLYWYLQKPGQSPQLLIYQMSNLASGVPDRFSSSGSGTDFTLRISRVEAEDVGVYYCAQNLELPRTFGGGTKLEMKR
notes: Fab in periplasmic extract
B9: ING-1 Fab, heavy chain T59P (Fab, V domains shown)
VH: B8 VH with T59P, L102A
VL: B8 VL
notes: Fab in periplasmic extract
B10: ING-1 Fab, heavy chain W50G (Fab, V domains shown)
VH: B8 VH with W50G, L102A
VL: B8 VL
notes: Fab in periplasmic extract
B11: ING-1 Fab, heavy chain E57L (Fab, V domains shown)
VH: B8 VH with E57L, L102A
VL: B8 VL
notes: Fab in periplasmic extract
B12: ING-1 Fab, heavy chain N52T (Fab, V domains shown)
VH: B8 VH with N52T, L102A
VL: B8 VL
notes: Fab in periplasmic extract
B13: ING-1 Fab, heavy chain E56P (Fab, V domains shown)
VH: B8 VH with E56P, L102A
VL: B8 VL
notes: Fab in periplasmic extract
B14: ING-1 Fab, heavy chain N52I (Fab, V domains shown)
VH: B8 VH with N52I, L102A
VL: B8 VL
notes: Fab in periplasmic extract
B15: ING-1 Fab, heavy chain S101L (Fab, V domains shown)
VH: B8 VH with S101L, L102A
VL: B8 VL
notes: Fab in periplasmic extract
B16: ING-1 Fab, heavy chain G33T (Fab, V domains shown)
VH: B8 VH with G33T, L102A
VL: B8 VL
notes: Fab in periplasmic extract
B17: ING-1 Fab, heavy chain T55G (Fab, V domains shown)
VH: B8 VH with T55G, L102A
VL: B8 VL
notes: Fab in periplasmic extract
B18: ING-1 Fab, heavy chain N52V (Fab, V domains shown)
VH: B8 VH with N52V, L102A
VL: B8 VL
notes: Fab in periplasmic extract
B19: ING-1 Fab, heavy chain G33V (Fab, V domains shown)
VH: B8 VH with G33V, L102A
VL: B8 VL
notes: Fab in periplasmic extract
B20: ING-1 Fab, heavy chain T53P (Fab, V domains shown)
VH: B8 VH with T53P, L102A
VL: B8 VL
notes: Fab in periplasmic extract
B21: ING-1 Fab, heavy chain W50P (Fab, V domains shown)
VH: B8 VH with W50P, L102A
VL: B8 VL
notes: Fab in periplasmic extract
B22: ING-1 Fab, heavy chain N52P (Fab, V domains shown)
VH: B8 VH with N52P, L102A
VL: B8 VL
notes: Fab in periplasmic extract
B23: ING-1 Fab, heavy chain N52L (Fab, V domains shown)
VH: B8 VH with N52L, L102A
VL: B8 VL
notes: Fab in periplasmic extract
B24: ING-1 Fab, heavy chain P58T (Fab, V domains shown)
VH: B8 VH with P58T, L102A
VL: B8 VL
notes: Fab in periplasmic extract
B25: ING-1 Fab, heavy chain D104P (Fab, V domains shown)
VH: B8 VH with L102A, D104P
VL: B8 VL
notes: Fab in periplasmic extract
B26: ING-1 Fab, heavy chain W50I (Fab, V domains shown)
VH: B8 VH with W50I, L102A
VL: B8 VL
notes: Fab in periplasmic extract
B27: ING-1 Fab, heavy chain D104T (Fab, V domains shown)
VH: B8 VH with L102A, D104T
VL: B8 VL
notes: Fab in periplasmic extract
B28: ING-1 Fab, heavy chain G100P (Fab, V domains shown)
VH: B8 VH with G100P, L102A
VL: B8 VL
notes: Fab in periplasmic extract
B29: ING-1 Fab, heavy chain N52G (Fab, V domains shown)
VH: B8 VH with N52G, L102A
VL: B8 VL
notes: Fab in periplasmic extract
B30: ING-1 Fab, heavy chain D104L (Fab, V domains shown)
VH: B8 VH with L102A, D104L
VL: B8 VL
notes: Fab in periplasmic extract
B31: ING-1 Fab, heavy chain T53G (Fab, V domains shown)
VH: B8 VH with T53G, L102A
VL: B8 VL
notes: Fab in periplasmic extract
B32: ING-1 Fab, heavy chain D104A (Fab, V domains shown)
VH: B8 VH with L102A, D104A
VL: B8 VL
notes: Fab in periplasmic extract
B33: ING-1 Fab, heavy chain N52A (Fab, V domains shown)
VH: B8 VH with N52A, L102A
VL: B8 VL
notes: Fab in periplasmic extract
B34: ING-1 Fab, heavy chain W50T (Fab, V domains shown)
VH: B8 VH with W50T, L102A
VL: B8 VL
notes: Fab in periplasmic extract
B35: ING-1 Fab, heavy chain K31L (Fab, V domains shown)
VH: B8 VH with K31L, L102A
VL: B8 VL
notes: Fab in periplasmic extract
B36: ING-1 Fab, heavy chain G33A (Fab, V domains shown)
VH: B8 VH with G33A, L102A
VL: B8 VL
notes: Fab in periplasmic extract
B37: ING-1 Fab, heavy chain W50L (Fab, V domains shown)
VH: B8 VH with W50L, L102A
VL: B8 VL
notes: Fab in periplasmic extract
B38: ING-1 Fab, heavy chain E57P (Fab, V domains shown)
VH: B8 VH with E57P, L102A
VL: B8 VL
notes: Fab in periplasmic extract
B39: ING-1 Fab, heavy chain D104V (Fab, V domains shown)
VH: B8 VH with L102A, D104V
VL: B8 VL
notes: Fab in periplasmic extract
B40: ING-1 Fab, heavy chain W50A (Fab, V domains shown)
VH: B8 VH with W50A, L102A
VL: B8 VL
notes: Fab in periplasmic extract

The target of one assay is IL-1β (UniProt P01584 117-269). The assay is described as follows: Biacore, Fab periplasmic extract on IL-1β.
For B1, the “fold difference in affinity vs original” value was determined as 1.16 fold.
As to B2, the “fold difference in affinity vs original” value turned out to be 1.35 fold.
For B3, the “fold difference in affinity vs original” value turned out to be 0.75 fold.
B4: the “fold difference in affinity vs original” value was determined as 1.08 fold.
For B5, the “fold difference in affinity vs original” value came to 3.81 fold.
Still for that read-out and setting: the value for B6 was 1.47 fold.
Turning to B7, the binding result is on record as “no binding”.

Another assay deals with T1, Ep-CAM. Nature of the assay: Biacore, Fab periplasmic extract on immobilised Epcam. (Surface plasmon resonance follows binding to a sensor surface in real time, without labels.)
As to B8, the binding result is “no binding”.
The same measure, in the same setting: the entry for B9 is “no binding”.
With B10, the “fold difference in affinity vs original” value was determined as 0.03 fold.
In the case of B11, the binding result is reported as “no binding”.
Same read-out and setting: the entry for B12 is “no binding”.
Consider B13, for which the “fold difference in affinity vs original” value turned out to be 0.01 fold.
For the molecule B14, the binding result was “no binding”.
As to B15, the binding result is “no binding”.
B16: the “fold difference in affinity vs original” value is 0.01 fold.
Same read-out and setting: the value for B17 was 0.02 fold.
With B18, the binding result is “no binding”.
Turning to B19, the “fold difference in affinity vs original” value was 0.04 fold.
For B20, the binding result is listed as “no binding”.
The same measure, in the same setting: the entry for B21 is “no binding”; for B22 it is “no binding”.
The same measure, in the same setting: the value for B23 was “no binding”.
As to B24, the “fold difference in affinity vs original” value turned out to be 1 fold.
For B25, the binding result is given as “no binding”.
In the case of B26, the “fold difference in affinity vs original” value was found to be 0.07 fold.
For the molecule B27, the binding result is “no binding”.
On the same count and under the same terms, the entry for B28 is “no binding”; for B29 it is “no binding”; for B30 it is “no binding”.
The same measure, in the same setting: the entry for B31 is “no binding”; for B32 it is “no binding”; for B33 it is “no binding”.
Consider B34, for which the “fold difference in affinity vs original” value turned out to be 0.03 fold.
On the same count and under the same terms, the value for B35 was 0.6 fold.
Same read-out and setting: the value for B36 was 0.06 fold.
Still for that read-out and setting: the figure for B37 is 0.04 fold.
Take B38: the binding result was “no binding”.
Same read-out and setting: the entry for B39 is “no binding”.
As to B40, the “fold difference in affinity vs original” value came out at 0.03 fold.

The values above are taken from patent US20110118131A1 (published 2011).
